Results: US20190300590A1

What follows are substances tested against Rat IL-23R_huFC (rat) (assay: rat ELISA vs IL-23).
Substance “Ac-Cyclo-[[Abu]-QTWQC]-[Phe[4-(2-aminoethoxy)]]-[2-Nal]-[Acbc]-ENN-NH2 (peptide)” has an IC50 of less than 10 nM. Substance “Ac-Cyclo-[[Abu]-QTWQC]-[Phe[4-(2-aminoethoxy)]]-[2-Nal]-[Achc]-ENN-NH2 (peptide)” has an IC50 of less than 10 nM. With “Ac-Cyclo-[[Abu]-QTWQC]-[Phe[4-(2-aminoethoxy)]]-[2-Nal]-[Acvc]-ENN-NH2 (peptide)” the IC50 was less than 10 nM.

These substances were tested against IL-23R on human cells (IL-23R-expressing DB cells; human NK cells) (human) (UniProt Q5VWK5) (assay: cell-based or functional assay).
IL-23R on human cells (IL-23R-expressing DB cells; human NK cells) (human), sequence (Q5VWK5 24-629): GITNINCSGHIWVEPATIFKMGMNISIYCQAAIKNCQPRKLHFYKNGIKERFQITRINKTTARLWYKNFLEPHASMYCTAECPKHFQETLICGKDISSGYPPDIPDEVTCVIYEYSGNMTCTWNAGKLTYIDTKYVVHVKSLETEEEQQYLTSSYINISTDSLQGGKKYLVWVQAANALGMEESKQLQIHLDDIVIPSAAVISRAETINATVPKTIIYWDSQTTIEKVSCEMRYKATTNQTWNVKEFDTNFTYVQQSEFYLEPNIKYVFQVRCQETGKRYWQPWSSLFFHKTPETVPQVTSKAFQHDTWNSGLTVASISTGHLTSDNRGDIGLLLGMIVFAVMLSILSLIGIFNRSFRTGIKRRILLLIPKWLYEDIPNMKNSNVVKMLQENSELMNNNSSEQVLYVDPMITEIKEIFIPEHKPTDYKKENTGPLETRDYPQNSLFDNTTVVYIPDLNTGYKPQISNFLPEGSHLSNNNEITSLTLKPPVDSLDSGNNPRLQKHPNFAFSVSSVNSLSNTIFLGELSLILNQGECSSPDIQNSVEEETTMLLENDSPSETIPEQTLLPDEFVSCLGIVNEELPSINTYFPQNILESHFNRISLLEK
“Alexa488-PEG4 through [D-Arg]: [D-Arg]-Cyclo-[[Abu]-QTWQC]-[Phe(4-2ae)]-[2-Nal]-[THP]-ENN-NH2 (peptide)” gave a pStat3 HTRF IC50 of less than 10 nM.

Each substance was assayed against IL23R_huFC (human) (UniProt Q5VWK5) (assay: Human IL23R/IL23 ELISA).
Target sequence in this assay (Q5VWK5 24-353): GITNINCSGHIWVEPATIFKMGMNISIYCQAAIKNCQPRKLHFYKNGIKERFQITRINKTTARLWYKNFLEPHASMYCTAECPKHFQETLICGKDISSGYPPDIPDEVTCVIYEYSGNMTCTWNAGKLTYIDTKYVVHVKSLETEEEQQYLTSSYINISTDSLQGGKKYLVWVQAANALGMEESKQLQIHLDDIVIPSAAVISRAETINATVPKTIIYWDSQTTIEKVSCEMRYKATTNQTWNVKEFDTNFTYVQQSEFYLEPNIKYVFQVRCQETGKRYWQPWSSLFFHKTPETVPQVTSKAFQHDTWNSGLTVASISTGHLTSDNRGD
With “Ac-Cyclo-[[Abu]-QTWQC]-[Phe(4-2ae)]-[2-Nal]-[THP]-EDN-OH (peptide)” the IC50 was 10 to 100 nM. Substance “Ac-[D-Arg]-Cyclo-[Abu-ETWEC]-[Phe(4-2ae)]-[2-Nal]-[THP]-ENN-NH2 (peptide)” has an IC50 of 1 to 10 nM. For “Ac-[D-Arg]-Cyclo-[[Abu]-ETWQC]-[Phe(4-2ae)]-[2-Nal]-[THP]-EDN-NH2 (peptide)”, the IC50 was 10 to 100 nM. Work on “Ac-[D-Arg]-Cyclo-[[Abu]-ETWQC]-[Phe(4-2ae)]-[2-Nal]-[THP]-ENN-NH2 (peptide)” yielded an IC50 of 1 to 10 nM. For “Ac-[D-Arg]-Cyclo-[[Abu]-ETWQC]-[Phe(4-2ae)]-[2-Nal]-[Tetrahydropyran-A]-END-NH2 (peptide)”, the IC50 was 1 to 10 nM. Substance “Ac-[D-Arg]-Cyclo-[[Abu]-QTWEC]-[Phe(4-2ae)]-[2-Nal]-[THP]-EDN-NH2 (peptide)” has an IC50 of 10 to 100 nM. For “Ac-[D-Arg]-Cyclo-[[Abu]-QTWEC]-[Phe(4-2ae)]-[2-Nal]-[THP]-END-NH2 (peptide)”, the IC50 was 1 to 10 nM. Substance “Ac-[D-Arg]-Cyclo-[[Abu]-QTWEC]-[Phe(4-2ae)]-[2-Nal]-[THP]-ENN-NH2 (peptide)” has an IC50 of 1 to 10 nM. For “Ac-[D-Arg]-Cyclo-[[Abu]-QTWEC]-[Phe(4-2ae)]-[2-Nal]-[THP]-ENN-OH (peptide)”, the IC50 was 1 to 10 nM. For “Ac-[D-Arg]-Cyclo-[[Abu]-QTWOC]-[Phe(4-2ae)]-[2-Nal]-[THP]]-END-NH2 (peptide)”, the IC50 was 1 to 10 nM. “Ac-[D-Arg]-Cyclo-[[Abu]-QTWQC]-[Phe(4-2ae)]-[2-Nal]-[THP]-EDD-NH2 (peptide)” gave an IC50 of 10 to 100 nM. “Ac-[D-Arg]-Cyclo-[[Abu]-QTWQC]-[Phe(4-2ae)]-[2-Nal]-[THP]-EDN-NH2 (peptide)” showed an IC50 of 10 to 100 nM. “Ac-[D-Arg]-Cyclo-[[Abu]-QTWQC]-[Phe(4-2ae)]-[2-Nal]-[THP]-END-OH (peptide)” showed an IC50 of 10 to 100 nM. “Ac-[D-Arg]-Cyclo-[[Abu]ETWQC]-[Phe(4-2ae)]-[2-Nal]-[THP]-ENN-OH (peptide)” was tested, and the IC50 was 1 to 10 nM.

Each substance was assayed against IL23R_huFC (human) (UniProt Q5VWK5) (assay: IL23-IL23R competitive binding ELISA).
Target sequence in this assay (Q5VWK5 24-353 limits assumed): as the sequence (Q5VWK5 24-353) above
For “[Ac-[Pen]-QTWQ-[Pen]-[Phe[4-(2-aminoethoxy)]-[2-Nal]-[Aib]-[Lys(Ac)]-NQ-NH2]2DIG (peptide)”, the IC50 was 25 to 100 nM. Substance “[Ac-[Pen]-QTWQ-[Pen]-[Phe[4-(2-aminoethoxy)]-[2-Nal]-[Aib]-[Lys(Ac)]-NQ-NH2]2PEG25 (peptide)” has an IC50 of 10 to 25 nM.
